T1: AnkB_MBD (AnkB ANK repeats only, aa 28–827) (human, UniProt Q01484-2 28-827)
T1 construct: ankyrin-B (AnkB), human 220 kDa isoform, residues 28-827: the 24 ANK repeats (MBD), no linker; numbers count on: human 220 kDa AnkB NM_020977.3; Poor quality in 100 mM NaCl buffer; also called AnkB 28–827; source: E. coli BL21 (DE3), purified (Ni2+-NTA, size exclusion)
T1 sequence (looked up): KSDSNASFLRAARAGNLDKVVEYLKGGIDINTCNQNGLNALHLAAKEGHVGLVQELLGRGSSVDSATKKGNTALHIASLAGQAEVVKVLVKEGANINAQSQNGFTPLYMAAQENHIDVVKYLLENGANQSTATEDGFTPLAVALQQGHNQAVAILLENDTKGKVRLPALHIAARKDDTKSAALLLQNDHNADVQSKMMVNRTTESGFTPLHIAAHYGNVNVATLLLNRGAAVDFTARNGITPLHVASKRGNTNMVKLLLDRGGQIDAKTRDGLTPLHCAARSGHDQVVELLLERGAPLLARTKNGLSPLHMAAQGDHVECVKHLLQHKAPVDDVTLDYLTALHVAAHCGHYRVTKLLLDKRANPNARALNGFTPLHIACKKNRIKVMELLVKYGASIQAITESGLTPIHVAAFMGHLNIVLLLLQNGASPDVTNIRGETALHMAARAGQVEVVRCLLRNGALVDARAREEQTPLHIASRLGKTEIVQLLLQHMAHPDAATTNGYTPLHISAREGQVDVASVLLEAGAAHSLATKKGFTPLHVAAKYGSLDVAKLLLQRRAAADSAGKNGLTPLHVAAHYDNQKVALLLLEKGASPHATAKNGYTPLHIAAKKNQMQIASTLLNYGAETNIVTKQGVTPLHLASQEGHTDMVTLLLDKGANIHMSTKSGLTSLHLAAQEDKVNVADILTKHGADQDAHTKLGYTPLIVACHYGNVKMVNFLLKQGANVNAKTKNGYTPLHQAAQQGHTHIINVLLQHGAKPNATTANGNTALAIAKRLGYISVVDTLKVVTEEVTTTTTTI

T2: AnkG 38–855 (AnkG MBD-AI-c protein; MBD + partial AI-c) (rat, UniProt O70511-1 38-855)
T2 construct: numbers count on: rat AnkG NM_001033984.1 (MBD-UPA); also called AnkG WT; source: E. coli BL21 (DE3), purified (Ni2+-NTA, size exclusion)
T2 sequence (looked up): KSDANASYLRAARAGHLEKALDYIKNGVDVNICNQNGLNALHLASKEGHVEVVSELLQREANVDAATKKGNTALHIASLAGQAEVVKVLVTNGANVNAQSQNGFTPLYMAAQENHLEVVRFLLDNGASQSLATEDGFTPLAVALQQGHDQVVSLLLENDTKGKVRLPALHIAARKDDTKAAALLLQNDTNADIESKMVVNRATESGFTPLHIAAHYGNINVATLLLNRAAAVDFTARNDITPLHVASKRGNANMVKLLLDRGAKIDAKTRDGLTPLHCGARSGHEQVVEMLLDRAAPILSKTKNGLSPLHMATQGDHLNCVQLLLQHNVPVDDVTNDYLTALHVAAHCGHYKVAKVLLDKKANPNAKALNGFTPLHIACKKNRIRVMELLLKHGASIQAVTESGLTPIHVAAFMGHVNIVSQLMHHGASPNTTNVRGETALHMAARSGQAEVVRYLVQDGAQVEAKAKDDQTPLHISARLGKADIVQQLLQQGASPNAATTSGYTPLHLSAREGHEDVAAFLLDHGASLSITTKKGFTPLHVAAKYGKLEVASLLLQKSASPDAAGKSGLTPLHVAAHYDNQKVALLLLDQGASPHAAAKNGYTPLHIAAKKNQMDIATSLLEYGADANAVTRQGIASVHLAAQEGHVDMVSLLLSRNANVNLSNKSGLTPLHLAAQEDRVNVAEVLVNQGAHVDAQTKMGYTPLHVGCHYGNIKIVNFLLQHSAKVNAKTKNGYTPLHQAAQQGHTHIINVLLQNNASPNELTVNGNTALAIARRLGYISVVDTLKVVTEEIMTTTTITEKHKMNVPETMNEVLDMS

T3: AnkB 28–847 (MBD + partial AI-c) (human, UniProt Q01484-2 28-847)
T3 construct: ankyrin-B (AnkB), human 220 kDa isoform, residues 28-847: MBD and a short 20-residue linker; numbers count on: human 220 kDa AnkB NM_020977.3; also called extended MBD with a short 20-residue linker; source: E. coli BL21 (DE3), purified (Ni2+-NTA, size exclusion)
T3 sequence (looked up): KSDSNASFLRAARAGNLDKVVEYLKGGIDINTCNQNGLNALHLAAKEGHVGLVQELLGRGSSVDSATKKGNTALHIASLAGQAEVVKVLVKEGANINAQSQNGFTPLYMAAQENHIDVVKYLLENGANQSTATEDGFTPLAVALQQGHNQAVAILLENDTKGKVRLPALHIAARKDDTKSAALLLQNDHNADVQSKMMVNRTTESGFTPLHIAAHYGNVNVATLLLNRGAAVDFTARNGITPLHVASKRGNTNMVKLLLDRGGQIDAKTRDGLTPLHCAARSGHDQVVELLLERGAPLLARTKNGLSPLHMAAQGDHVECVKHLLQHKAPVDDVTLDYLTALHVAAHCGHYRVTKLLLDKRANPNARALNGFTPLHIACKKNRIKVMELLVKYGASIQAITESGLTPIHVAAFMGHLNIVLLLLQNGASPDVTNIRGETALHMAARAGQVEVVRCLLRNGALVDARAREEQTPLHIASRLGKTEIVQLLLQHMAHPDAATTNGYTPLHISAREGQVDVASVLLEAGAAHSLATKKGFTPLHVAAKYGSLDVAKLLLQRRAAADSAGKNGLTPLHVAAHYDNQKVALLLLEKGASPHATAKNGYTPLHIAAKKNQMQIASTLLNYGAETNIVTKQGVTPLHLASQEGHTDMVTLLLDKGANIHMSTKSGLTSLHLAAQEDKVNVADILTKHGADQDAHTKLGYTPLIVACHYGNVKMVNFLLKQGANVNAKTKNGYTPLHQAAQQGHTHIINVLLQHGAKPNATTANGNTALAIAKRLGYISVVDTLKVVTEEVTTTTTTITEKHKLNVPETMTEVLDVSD

T4: AnkG 38–903 (MBD + AI-c + AI-b) (rat, UniProt O70511-1 38-903)
T4 construct: numbers count on: rat AnkG NM_001033984.1 (MBD-UPA); also called extended AnkG MBD; source: E. coli BL21 (DE3), purified (Ni2+-NTA, size exclusion)
T4 sequence (looked up): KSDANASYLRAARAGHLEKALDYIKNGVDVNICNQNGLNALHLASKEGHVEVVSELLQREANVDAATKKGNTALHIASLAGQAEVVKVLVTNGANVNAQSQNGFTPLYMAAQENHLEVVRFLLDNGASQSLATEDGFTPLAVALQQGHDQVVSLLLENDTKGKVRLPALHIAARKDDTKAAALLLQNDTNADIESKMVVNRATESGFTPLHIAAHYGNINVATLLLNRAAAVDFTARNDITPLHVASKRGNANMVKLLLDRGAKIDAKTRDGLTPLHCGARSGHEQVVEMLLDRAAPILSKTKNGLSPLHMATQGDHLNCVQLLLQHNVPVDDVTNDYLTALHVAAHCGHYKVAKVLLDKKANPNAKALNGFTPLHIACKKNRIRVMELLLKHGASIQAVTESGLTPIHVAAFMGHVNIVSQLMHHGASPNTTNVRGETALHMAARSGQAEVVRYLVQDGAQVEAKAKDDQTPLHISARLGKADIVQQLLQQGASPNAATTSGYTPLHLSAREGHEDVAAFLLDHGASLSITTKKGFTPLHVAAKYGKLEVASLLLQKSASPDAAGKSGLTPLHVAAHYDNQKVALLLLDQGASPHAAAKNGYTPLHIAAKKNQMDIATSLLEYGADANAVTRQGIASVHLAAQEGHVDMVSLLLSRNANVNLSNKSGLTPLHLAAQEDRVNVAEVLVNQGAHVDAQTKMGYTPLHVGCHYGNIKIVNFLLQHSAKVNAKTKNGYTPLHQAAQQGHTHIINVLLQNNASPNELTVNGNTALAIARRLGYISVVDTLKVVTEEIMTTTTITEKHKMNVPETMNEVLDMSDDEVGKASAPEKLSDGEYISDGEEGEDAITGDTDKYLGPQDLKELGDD

B1: AnkB_AI-c Leu843Gln (domain or fragment, human, UniProt Q01484-2 828-852, looked up)
chain: TEKHKLNVPETMTEVQDVSDEEGDD
notes: numbers count on: human 220 kDa AnkB NM_020977.3; source: E. coli BL21 (DE3), purified (Ni2+-NTA, size exclusion)
B2: AnkB_AI-c Met839Gln (domain or fragment, human, UniProt Q01484-2 828-852, looked up)
chain: TEKHKLNVPETQTEVLDVSDEEGDD
notes: as for B1
B3: E-cadherin (aa 734–884) (domain or fragment)
chain: not shown
notes: source: E. coli BL21 (DE3), purified (Ni2+-NTA, size exclusion)
B4: AnkG long linker (aa 837–920; AI-c + AI-b) (domain or fragment, rat, UniProt O70511-1 837-920, looked up)
chain: TEKHKMNVPETMNEVLDMSDDEVGKASAPEKLSDGEYISDGEEGEDAITGDTDKYLGPQDLKELGDDSLPAEGYVGFSLGARSA
notes: numbers count on: rat AnkG NM_001033984.1 (MBD-UPA); source: E. coli BL21 (DE3), purified (Ni2+-NTA, size exclusion)
B5: AnkG linker ΔAI-c (aa 861–920) (domain or fragment, rat, UniProt O70511-1 861-920, looked up)
chain: KASAPEKLSDGEYISDGEEGEDAITGDTDKYLGPQDLKELGDDSLPAEGYVGFSLGARSA
notes: ankyrin-G (AnkG), rat, linker residues 861-920, lacking AI-c; numbers count on: rat AnkG NM_001033984.1 (MBD-UPA); also called AnkG 861–920; shorter version of the linker; source: E. coli BL21 (DE3), purified (Ni2+-NTA, size exclusion)
B6: AnkG_AI-b (aa 875–903) (domain or fragment, rat, UniProt O70511-1 875-903, looked up)
chain: SDGEEGEDAITGDTDKYLGPQDLKELGDD
notes: as for B4

How the values were obtained:
Assay in all cases: ITC; VP-ITC MicroCal, 25 °C; proteins in 50 mM Tris-HCl pH 7.8, 1 mM DTT, 1 mM EDTA with 100 mM or 500 mM NaCl as required; who was titrated is not told
Conditions in all cases: both partners purified
[1] = molecular target: T1, AnkB_MBD (AnkB ANK repeats only, aa …)
[2] = molecular target: T2, AnkG 38–855 (AnkG MBD-AI-c protein; MBD …)
[3] = molecular target: T3, AnkB 28–847 (MBD + partial AI-c)
[4] = molecular target: T4, AnkG 38–903 (MBD + AI-c + AI-b)

| Binder | binding result [1] | binding result [2] | also measured |
| --- | --- | --- | --- |
| B1 | binds | – | – |
| B2 | binds | – | – |
| B3 | – | binds | binding result [3]: binds; binding result [4]: binds |
| B4 | – | binds | – |
| B5 | – | binds | – |
| B6 | – | binds | – |

From paper PMC5779224, “Autoinhibition of ankyrin-B/G membrane target bindings by intrinsically disordered segments from the tail regions” (eLife, 2017)
